# According to the Immune Epitope Database (IEDB):
# pKd: −log10 of the molar value.
# Columns and labels:
# Test in all cases: IEDB peptide-MHC binding, purified MHC/competitive/radioactivity; filed as Kd, often an IC50 or EC50 that approximates it; ≥ and ≤ were set here for values at or beyond the usual limits of such assays
# Conditions in all cases: source organism: Plasmodium falciparum 3D7
# HLA-A*03:01 = target: HLA-A*03:01
# HLA-A*11:01 = target: HLA-A*11:01
# HLA-A*31:01 = target: HLA-A*31:01
# HLA-A*33:01 = target: HLA-A*33:01
# HLA-A*68:01 = target: HLA-A*68:01
# HLA-A*23:01 = target: HLA-A*23:01
# HLA-A*24:02 = target: HLA-A*24:02
# HLA-A*29:02 = target: HLA-A*29:02
# HLA-A*30:02 = target: HLA-A*30:02
# HLA-A*01:01 = target: HLA-A*01:01
# HLA-A*26:01 = target: HLA-A*26:01
Sequence,pKd (HLA-A*03:01),pKd (HLA-A*11:01),pKd (HLA-A*31:01),pKd (HLA-A*33:01),pKd (HLA-A*68:01),pKd (HLA-A*23:01),pKd (HLA-A*24:02),pKd (HLA-A*29:02),pKd (HLA-A*30:02),pKd (HLA-A*01:01),pKd (HLA-A*26:01)
AFLESQSMNK,5.51,5.96,5.00,≤ 5.00,≤ 5.00,–,–,–,–,–,–
ALERLLSLK,6.63,6.43,5.46,≤ 5.00,≤ 5.00,–,–,–,–,–,–
ALERLLSLKK,6.83,6.09,≤ 5.00,≤ 5.00,≤ 5.00,–,–,–,–,–,–
ALKISQLQK,7.82,7.02,5.49,≤ 5.00,≤ 5.00,–,–,–,–,–,–
AVSEIQNNK,7.60,7.96,5.84,≤ 5.00,7.85,–,–,–,–,–,–
DFFLKSKFNI,–,–,–,–,–,6.52,5.78,≤ 5.00,5.58,–,–
ELEASISGKY,–,–,–,–,–,–,–,≤ 5.00,6.33,6.85,7.64
ELFDKDTFFK,6.84,–,5.43,7.89,8.44,–,–,–,–,–,–
EQRLPLLPK,5.96,6.12,6.37,6.01,5.72,–,–,–,–,–,–
FISFYLINK,7.72,8.05,5.66,5.84,7.74,–,–,–,–,–,–
FQAAESNERY,–,–,–,–,–,–,–,5.75,6.43,5.05,5.45
FSYDLRLNK,7.54,8.31,6.34,5.90,7.82,–,–,–,–,–,–
FVSSIFISFY,–,–,–,–,–,–,–,7.66,7.08,6.93,7.96
GTMYILLKK,8.66,8.92,7.54,5.07,8.51,–,–,–,–,–,–
HLNIPIGFK,8.64,8.89,6.74,–,8.55,–,–,–,–,–,–
IALLIIPPK,5.91,6.97,5.53,5.85,5.71,–,–,–,–,–,–
IFISFYLINK,5.70,5.98,6.34,6.40,6.44,–,–,–,–,–,–
IFLRFIPDK,5.61,5.89,5.78,5.88,≤ 5.00,–,–,–,–,–,–
IIALLIIPPK,7.52,8.28,≤ 5.00,5.07,7.09,–,–,–,–,–,–
ILCIEGEQK,5.85,6.19,5.12,≤ 5.00,6.28,–,–,–,–,–,–
IYYFDGNSW,–,–,–,–,–,8.21,–,5.51,5.52,–,–

Sequence,pKd (HLA-A*03:01),pKd (HLA-A*11:01),pKd (HLA-A*31:01),pKd (HLA-A*33:01),pKd (HLA-A*68:01),pKd (HLA-A*23:01),pKd (HLA-A*24:02),pKd (HLA-A*29:02),pKd (HLA-A*30:02),pKd (HLA-A*01:01),pKd (HLA-A*26:01)
KFNILSSPL,–,–,–,–,–,5.75,5.76,≤ 5.00,5.89,–,–
KILIKIPVTK,–,7.22,5.78,≤ 5.00,≤ 5.00,–,–,–,–,–,–
KINSNFLLK,7.77,8.19,7.17,≤ 5.00,5.56,–,–,–,–,–,–
KSMLKELIK,6.72,6.82,6.35,≤ 5.00,≤ 5.00,–,–,–,–,–,–
KYEALIKLL,–,–,–,–,–,6.32,5.54,≤ 5.00,≤ 5.00,–,–
LEASISGKY,–,–,–,–,–,–,–,≤ 5.00,7.06,≤ 5.00,5.40
LFDKDTFFK,6.03,6.78,5.24,5.92,7.00,–,–,–,–,–,–
LIENELMNY,–,–,–,–,–,–,–,5.40,6.79,6.39,6.64
LNEQLIYTY,–,–,–,–,–,–,–,5.62,5.38,≤ 5.00,5.21
LQMMNVNLQK,7.60,8.14,6.36,5.95,6.49,–,–,–,–,–,–
LTNHLINTPK,7.96,8.23,7.21,6.43,8.00,–,–,–,–,–,–
MQSSFFMNR,–,8.96,7.54,7.12,8.42,–,–,–,–,–,–
NHEQKLSEY,–,–,–,–,–,–,–,≤ 5.00,≤ 5.00,≤ 5.00,≤ 5.00
NIFLRFIPDK,≤ 5.00,5.67,≤ 5.00,5.96,5.82,–,–,–,–,–,–
NVDQQNDMY,–,–,–,–,–,–,–,≤ 5.00,≤ 5.00,7.33,≤ 5.00
PVLTSLFNK,5.71,7.60,5.29,≤ 5.00,≤ 5.00,–,–,–,–,–,–
PVVCSMEYK,5.71,7.10,≤ 5.00,≤ 5.00,6.38,–,–,–,–,–,–
QAAESNERY,–,–,–,–,–,–,–,≤ 5.00,5.52,6.45,6.85
QEEQKKYIY,–,–,–,–,–,–,–,≤ 5.00,≤ 5.00,≤ 5.00,≤ 5.00
QNADKNFLY,–,–,–,–,–,–,–,7.62,6.18,5.42,6.78
QQNQESKIMK,5.46,7.11,≤ 5.00,≤ 5.00,≤ 5.00,–,–,–,–,–,–

Sequence,pKd (HLA-A*03:01),pKd (HLA-A*11:01),pKd (HLA-A*31:01),pKd (HLA-A*33:01),pKd (HLA-A*68:01),pKd (HLA-A*23:01),pKd (HLA-A*24:02),pKd (HLA-A*29:02),pKd (HLA-A*30:02),pKd (HLA-A*01:01),pKd (HLA-A*26:01)
RLPLLPKTWK,7.96,–,6.47,≤ 5.00,5.54,–,–,–,–,–,–
RMTSLKNEL,–,–,–,–,–,–,≤ 5.00,≤ 5.00,7.85,–,–
RYQDPQNYEL,–,–,–,–,–,6.91,–,≤ 5.00,7.08,–,–
SISGKYDIK,5.68,7.30,≤ 5.00,≤ 5.00,5.76,–,–,–,–,–,–
SQDLACIFDA,≤ 5.00,≤ 5.00,≤ 5.00,≤ 5.00,≤ 5.00,–,–,–,–,–,–
SQVSNSDSYK,5.78,7.08,≤ 5.00,≤ 5.00,5.86,–,–,–,–,–,–
SSFDIKSEVK,5.72,7.72,≤ 5.00,≤ 5.00,7.51,–,–,–,–,–,–
SSFFMNRFY,–,–,–,–,–,–,–,7.44,8.12,6.62,6.78
SSPLFNNFY,–,–,–,–,–,–,–,–,7.39,6.93,7.77
SSPLFNNFYK,7.00,9.13,5.79,5.76,8.20,–,–,–,–,–,–
TFLESSFDIK,≤ 5.00,5.60,≤ 5.00,≤ 5.00,≤ 5.00,–,–,–,–,–,–
TTRYKYLNK,6.93,6.07,6.38,6.19,5.59,–,–,–,–,–,–
TYKKKNNHI,–,–,–,–,–,7.09,7.52,≤ 5.00,–,–,–
VSSIFISFY,–,–,–,–,–,–,–,5.74,7.26,6.84,5.79
VVCSMEYKK,6.35,7.27,6.05,≤ 5.00,6.78,–,–,–,–,–,–
YLFNQHIKK,7.85,8.11,5.31,5.10,7.85,–,–,–,–,–,–
YLINKHWQR,5.99,6.17,8.36,8.11,8.43,–,–,–,–,–,–
YQNFQNADK,5.57,6.75,≤ 5.00,≤ 5.00,≤ 5.00,–,–,–,–,–,–
YYNNFNNNY,–,–,–,–,–,6.90,–,–,7.24,–,–
